The values below come from publication PMC9330637.

Where two headings read alike, the source gives them in different places.

In data set [1] the target is T1, FUS wild-type (UniProt P35637 1-526). The data set can be described thus: fluorescence anisotropy. A general note: Polarisation of emitted light reports the rotation of a fluorescent probe.
For data set [2], the target named is T1, FUS wild-type. The data set is described as follows: single-molecule fluorescence.
A further data set deals with FUS Y>S (UniProt P35637 1-526, Y6S;Y14S;Y17S;Y25S;Y33S;Y38S;Y41S;Y50S;Y55S;Y58S;Y66S;Y75S;Y81S;Y91S;Y97S;Y100S; …). The data set is described as follows: single-molecule fluorescence.
The target of data set [3] is T1, FUS wild-type. The data set is described as follows: single-molecule fluorescence. This is another data set of the same source.

With UUUUUUUUUUUUUUUUUUUUUUUUUUUUUUUUUUUUUUUU (ssRNA) [U40 RNA], the Kd – broadly, a measure of binding affinity in units of concentration – with FUS wild-type [1] is about 5 nM.

B1: pdPAR22 (mixed)
DNA 1: TGGCGACGGCAGCGAGGC
DNA 2: GCCTCGCTGCCGTCGCCA
modifications: PAR 22-mer joined to DNA strand 1 by alkyne-azide click; PAR not part of printed strand
B1: the binding result with FUS wild-type [2] and with FUS Y>S was “binds” each time.

B2: pdU50 RNA (mixed)
RNA 1: UUUUUUUUUUUUUUUUUUUUUUUUUUUUUUUUUUUUUUUUUUUUUUUUUUGCCUCGCUGCCGUCGCCA
RNA 2: UGGCGACGGCAGCGAGGC
With B2, the binding result in the data set with FUS wild-type [3] is “binds”.

B3: pdPAR9 (mixed)
DNA 1: TGGCGACGGCAGCGAGGC
DNA 2: GCCTCGCTGCCGTCGCCA
modifications: PAR 9-mer joined to DNA strand 1 by alkyne-azide click; PAR not part of printed strand
Turning to B3, the binding result in the data set with FUS wild-type [2] was “binds”.
